This note sets out measurements from patent publication US20200199241A1 (Chugai, published 2020).

T1: FcγRIIb (human, UniProt P31994 43-217, limits assumed)
T1 construct: also called FcgRIIb; FcγIIB
T1 sequence: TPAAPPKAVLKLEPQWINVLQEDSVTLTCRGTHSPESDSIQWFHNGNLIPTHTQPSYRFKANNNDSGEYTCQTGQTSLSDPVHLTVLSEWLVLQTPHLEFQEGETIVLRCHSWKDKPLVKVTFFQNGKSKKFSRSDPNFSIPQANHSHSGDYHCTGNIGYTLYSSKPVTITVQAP

T2: FcγRIIb (human, UniProt P31994 43-217, limits assumed)
T2 construct: SPR analyte; also called FcγIIB; CD32
T2 sequence: T1 sequence

T3: FcγRIIa type R (human, UniProt P12318 36-217)
T3 construct: SPR analyte; also called FcγRIIaR; FcγRIIa(R)
T3 chain: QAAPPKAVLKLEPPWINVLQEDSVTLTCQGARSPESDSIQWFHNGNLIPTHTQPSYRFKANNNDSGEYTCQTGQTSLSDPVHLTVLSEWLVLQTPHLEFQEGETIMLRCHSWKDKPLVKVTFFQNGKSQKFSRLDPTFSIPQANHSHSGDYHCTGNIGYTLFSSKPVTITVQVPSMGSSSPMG

T4: FcγRIIa type H (human, UniProt P12318 36-217)
T4 construct: also called FcγRIIaH; FcγRIIH
T4 sequence: T3 chain with R133H

T5: human FcγRIIa(H) (human, UniProt P12318 36-217)
T5 construct: also called hFcgRIIa(H); FcγRIIa type H
T5 sequence: T3 chain with R133H

T6: human FcγRIIa(R) (human, UniProt P12318 36-217)
T6 construct: also called hFcgRIIa(R); FcγRIIa type R
T6 chain: T3 chain

T7: FcγRIIa type H (human, UniProt P12318 36-217)
T7 construct: SPR analyte; also called FcγRIIaH
T7 sequence: T3 chain with R133H

B1: IL6R-BP121/IL6R-L (antibody, human IgG1)
heavy: QVQLQESGPGLVKPSETLSLTCAVSGHSISHDHAWSWVRQPPGEGLEWIGFISYSGITNYNPSLQGRVTISRDNSKNTLYLQMNSLRAEDTAVYYCARSLARTTAMDYWGEGTLVTVSSASTKGPSVFPLAPSSKSTSGGTAALGCLVKDYFPEPVTVSWNSGALTSGVHTFPAVLQSSGLYSLSSVVTVPSSSLGTQTYICNVNHKPSNTKVDKKVEPKSCDKTHTCPPCPAPELLGGDSVFLFPPKPKDTLMISRTPEVTCVVVDVSHEDPEVKFNWYVDGVEVHNAKTKPREEQYNSTYRVVSVLTVLHQDWLNGKEYKCKVSNQALPAPIEKTISKAKGQPREPQVYTLPPSRDELTKNQVSLTCLVKGFYPSDIAVEWESNGQPENNYKTTPPVLDSDGSFFLYSKLTVDKSRWQQGNVFSCSVMHEALHNHYTQESLSLSP
light: DIQMTQSPSSLSASVGDRVTITCRASQDISSYLNWYQQKPGKAPKLLIYYTSRLHSGVPSRFSGSGSGTDFTFTISSLQPEDIATYYCQQGNTLPYTFGQGTKVEIK
notes: IgG1; Fc variant of IL6R-B3; copies: 2 + 2
B2: IL6R-BP912/IL6R-L (antibody, human IgG1)
heavy: B1 heavy with Q328K, A332R
light: B1 light
notes: as for B1
B3: IL6R-2B169/IL6R-L (antibody, human IgG1)
heavy: B1 heavy with V325I, Q328K
light: B1 light
notes: as for B1
B4: IL6R-2B128/IL6R-L (antibody, human IgG1)
heavy: B1 heavy with Y298D, Q328K
light: B1 light
notes: as for B1
B5: IL6R-BP110/IL6R-L (antibody, human IgG1)
heavy: B1 heavy with H270N, Q328K
light: B1 light
notes: as for B1
B6: IL6R-BF648/IL6R-L (antibody, human IgG1)
heavy: not shown
light: B1 light
B7: IL6R-BP180/IL6R-L (antibody, human IgG1)
heavy: B1 heavy with G239D, P273G, Q328K, A332K
light: B1 light
B8: IL6R-BP152/IL6R-L (antibody, human IgG1)
heavy: B1 heavy with E235D, L236Y, G239D, Y298D, Q328A, A332R
light: B1 light
B9: IL6R-BP178/IL6R-L (antibody, human IgG1)
heavy: B1 heavy with E235D, G239D, P273G, Q328K, A332K
light: B1 light
B10: antibody with VH3-IgG1-F1324 heavy chain and L(WT)-CK light chain (antibody)
heavy: B1 heavy with L236A, L237A, D240P, M254Y, Q328K, N436Y, Y438V, E441K
light: not shown
notes: L234A/L235A on VH3-IgG1-F890; copies: 2 + 2

Substitutions are numbered along the chain they refer to. In names and notes the source's numbering stands.

T11 sequence (P08637 other isoform, or with tags, fused parts or gaps limits assumed): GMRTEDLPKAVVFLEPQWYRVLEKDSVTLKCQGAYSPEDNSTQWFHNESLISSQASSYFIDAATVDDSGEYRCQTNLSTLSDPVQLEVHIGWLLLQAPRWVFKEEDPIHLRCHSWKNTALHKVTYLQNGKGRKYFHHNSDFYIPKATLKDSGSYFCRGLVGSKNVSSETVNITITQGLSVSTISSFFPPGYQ

The target of the first experiment is T1, FcγRIIb. Nature of the experiment: SPR (Biacore), KD of IL6R-B3/IL6R-L divided by KD of the variant. In general terms: In SPR one partner is held on a chip, and binding of the other changes the refractive index at the surface.
Excerpt: (§1) Furthermore, KD(IIaR)/KD(IIb) and KD(IIaH)/KD(IIb) in the table respectively represent the value obtained by dividing the KD value of each variant for FcγRIIaR by the KD value of each variant for FcγRIIb, and the value obtained by dividing the KD value of each variant for FcγRIIaH by the KD value of each variant for FcγRIIb. KD(IIb) of the parent polypeptide/KD(IIb) of the altered polypeptide refers to the value obtained by dividing the KD value of the parent polypeptide for FcγRIIb by the KD value of each variant for FcγRIIb.
In the case of B1, the “KD(IIb) of the parent polypeptide/KD(IIb) of altered polypeptide” value (from here on “KD(IIb) … of altered polypeptide”) is 2.8 fold.
On the same count and under the same terms, then B2, with 2.1 fold; and B3, with 2.6 fold.
For B4, the “KD(IIb) … of altered polypeptide” value was 2.1 fold.
B5: the “KD(IIb) … of altered polypeptide” value was 2.1 fold.

A further experiment addresses T2, FcγRIIb. Nature of the experiment: ratio of SPR KDs: KD for FcγRIIaH over KD for FcγRIIb.
Excerpt: (§2) Furthermore, KD(IIaR)/KD(IIb) and KD(IIaH)/KD(IIb) in the table respectively represent the value obtained by dividing the KD value of each variant for FcγRIIaR by the KD value of each variant for FcγRIIb, and the value obtained by dividing the KD value of each variant for FcγRIIaH by the KD value of each variant for FcγRIIb.
In the case of B6, the “KD(IIaH)/KD(IIb)” value is 33.9.
Same read-out and setting: then B7, with 191.

A further experiment concerns the target T3, FcγRIIa type R. Nature of the experiment: ratio of SPR KDs; stronger receptor here FcγRIIaR; reference IL6R-B3/IL6R-L (FcγRIIaH).
Excerpt: as §1
As for B6, the “KD of the stronger of FcγRIIaR/FcγRIIaH binding of the variant / that of the parent polypeptide” value was 19.9.
Still for that read-out and setting: then B8, with 1; and B9, with 1.2.
The same measure, in the same setting: next, B7: 1.5.

The target in the next experiment is T2, FcγRIIb. Nature of the experiment: ratio of SPR KDs: KD for FcγRIIaR over KD for FcγRIIb.
Excerpt: as §2
For the molecule B6, the “KD(IIaR)/KD(IIb)” value stood at 13.
On to B7, for which the “KD(IIaR)/KD(IIb)” value came to 18.6.

For a further experiment, the target named is T2, FcγRIIb. Briefly: ratio of SPR KDs; reference IL6R-B3/IL6R-L.
Excerpt: as §1
For B6, the “KD(IIb) … of altered polypeptide” value amounted to 2.5.
On the same count and under the same terms, then B8, with 75.
Same read-out and setting: then B9, with 60.1; and B7, with 49.9.

The target of the next experiment is T1, FcγRIIb. Briefly: SPR (Biacore), FcγR over captured antibody.
What is called Kd is the equilibrium constant for the complex coming apart. B1: the dissociation constant (Kd) came to 1100 nM.
Still for that read-out and setting: next, B2: 1500 nM.
The molecule B3 showed a Kd of 1200 nM.
Molecule B4 gave a Kd of 1400 nM.
Same read-out and setting: next, B5: 1500 nM.

A further experiment deals with T8, FcγRIa (human, UniProt P12314 16-292, limits assumed).
T8 construct: also called FcgRIa; CD64
Briefly: SPR (Biacore), FcγR over captured antibody.
T8 sequence (P12314 16-292 limits assumed): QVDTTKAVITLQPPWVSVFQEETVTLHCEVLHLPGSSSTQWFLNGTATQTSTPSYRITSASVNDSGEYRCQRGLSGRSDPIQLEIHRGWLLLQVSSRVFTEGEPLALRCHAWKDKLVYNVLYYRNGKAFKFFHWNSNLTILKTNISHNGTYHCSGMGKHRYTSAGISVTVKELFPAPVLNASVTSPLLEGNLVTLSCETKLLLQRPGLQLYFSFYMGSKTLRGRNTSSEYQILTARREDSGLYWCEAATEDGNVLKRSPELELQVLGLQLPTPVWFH
Turning to B1, the Kd is 11 nM.
The same measure, in the same setting: next, B2: 38 nM; B3: 25 nM; B4: 13 nM.
Still for that read-out and setting: then B5, with 7.3 nM.

For a further experiment, the target named is T9, FcγRIIIa type V (human, UniProt P08637 17-208, limits assumed).
T9 construct: also called FcγRIIIaV; FcgRIIIaV
Nature of the experiment: SPR (Biacore), FcγR over captured antibody.
T9 sequence (P08637 other isoform, or with tags, fused parts or gaps limits assumed): as the sequence (P08637 other isoform, or with tags, fused parts or gaps limits assumed) above
For the molecule B1, the Kd is 52 µM.
For B2, the equilibrium dissociation constant (Kd) was 78 µM.
The same measure, in the same setting: next, B3: 75 µM.
The molecule B4 gave a Kd of 72 µM.
Regarding B5, the dissociation constant (Kd) turned out to be 64 µM.

The next experiment has as its target T4, FcγRIIa type H. Briefly: SPR (Biacore), FcγR over captured antibody.
Molecule B1 returned an equilibrium dissociation constant (Kd) of 44 µM.
B2 showed a Kd of 38 µM.
With B3, binding was characterised by a dissociation constant (Kd) of 48 µM.
Still for that read-out and setting: then B4, with 34 µM.
Still for that read-out and setting: next, B5: 47 µM.

The target in the next experiment is T5, human FcγRIIa(H). Nature of the experiment: SPR, antibody captured by Protein L, human FcγR as analyte, pH 7.4, 25 C.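 Also: biacore T100 or T200 with Protein L amine-coupled on a CM4 chip, FcγRs diluted in ACES saline with polysorbate 20, buffer-only injection as blank.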
Description: (§3) Binding activity between the antibodies and human FcγRIa, FcγRIIa(H), FcγRIIa(R), FcγRIIb and FcγRIIIa(F) (hereinafter referred to as human FcγRs) was evaluated using the BIACORE™ T100 or T200 surface plasmon resonance system (GE Healthcare). The antibodies being tested were captured by Protein L (ACTIGEN® protein (Alltech)) that was immobilized in suitable amounts on the CM4 Sensor Chip (GE Healthcare) by amine coupling. Next, the diluted human FcγRs and a running buffer used as a blank were injected to allow interaction with the antibodies captured on the sensor chip. A buffer consisting of 20 mmol/L N-(2-acetamido)-2-aminoethanesulfonic acid (ACES), 150 mmol/L NaCl and 0.05% (w/v) polysorbate 20 (Tween 20®) (pH 7.4) was used for the running buffer, and this buffer was also used to dilute the human FcγRs. 10 mmol/L glycine-HCl (pH 1.5) was used to regenerate the sensor chip. All measurements were carried out at 25° C.
Consider B10, for which the “BINDING AMOUNT (RU)” value worked out at 6.97 RU.

A further experiment has as its target T6, human FcγRIIa(R). The description is as above.
Description: as §3
Take B10: the “BINDING AMOUNT (RU)” value came to 9.1 RU.

In a further experiment the target is T10, human FcγRIa (human, UniProt P12314 16-292, limits assumed).
T10 construct: also called hFcgRIa; hFcgRI
T10 sequence (P12314 16-292 limits assumed): as the sequence (P12314 16-292 limits assumed) above
The description is as above.
Description: as §3
Consider B10, for which the “BINDING AMOUNT (RU)” value stood at 227 RU.

A further experiment has as its target T11, human FcγRIIIa(V) (human, UniProt P08637 17-208, limits assumed).
T11 construct: also called hFcgRIIIa(V); allotype V158
Described as above.
Description: as §3
Consider B10, for which the “BINDING AMOUNT (RU)” value was determined as 39.5 RU.

The next experiment addresses T12, FcγRIIIa type V (human, UniProt P08637 17-208, limits assumed).
T12 construct: SPR analyte; allotype V158 was used here; also called FcγRIIIaV; FcγRIIIa(V)
Nature of the experiment: SPR (Biacore), antibody captured, FcγR analyte.
T12 sequence (P08637 other isoform, or with tags, fused parts or gaps limits assumed): as the sequence (P08637 other isoform, or with tags, fused parts or gaps limits assumed) above
Excerpt: as §1
Turning to B6, the equilibrium dissociation constant (Kd) came out at 71 µM.
For B7, binding was put at a Kd of 70 µM.

For another experiment, the target named is T13, FcγRIa (human, UniProt P12314 16-292, limits assumed).
T13 construct: SPR analyte; also called CD64
Briefly: SPR (Biacore), antibody captured, FcγR analyte.
T13 sequence (P12314 16-292 limits assumed): as the sequence (P12314 16-292 limits assumed) above
Excerpt: as §1
B6 displayed a dissociation constant Kd of 11 nM.
Still for that read-out and setting: next, B8: 73 nM.
On the same count and under the same terms, then B9, with 43 nM.

The target in another experiment is T2, FcγRIIb. Nature of the experiment: SPR (Biacore), antibody captured, FcγR analyte.
Excerpt: as §1
B6 had a Kd of 1200 nM.
In turn, B8 showed a Kd of 41 nM.
On the same count and under the same terms, next, B9: 51 nM.
Same read-out and setting: then B7, with 62 nM.

In another experiment the target is T3, FcγRIIa type R. Nature of the experiment: SPR (Biacore), antibody captured, FcγR analyte.
Excerpt: as §1
In the case of B6, binding was put at a Kd of 15000 nM.
The same measure, in the same setting: then B8, with 810 nM; and B9, with 930 nM; and B7, with 1200 nM.

The target in the next experiment is T7, FcγRIIa type H. Briefly: SPR (Biacore), antibody captured, FcγR analyte.
Excerpt: as §1
The molecule B6 showed a Kd of 40 µM.
On the same count and under the same terms, then B8, with 5.6 µM; and B9, with 14 µM.
B7: the equilibrium dissociation constant (Kd) was 18 µM.
